1 molecule from patent US7410639 (VEGENICS, dated 2008) can be followed below.

For the test, the target named is T1, VEGFR2-EpoR chimeric receptor (mouse VEGFR2 extracellular domain with mouse EpoR transmembrane and … (mouse, UniProt P35918 20-762; P14753 250-507, limits assumed).
T1 construct: extracellular domain;domain: transmembrane and cytoplasmic domains; Expressed on the surface of Ba/F3 cells (line Ba/F3-NYK-EpoR); also called VEGF receptor-2; Flk-1
In words: Ba/F3 VEGFR2-EpoR bioassay (binding inferred from proliferation). On the procedure: Recombinant VEGFDΔNΔC, and material purified by M2 affinity chromatography, was assessed using the VEGFR2 bioassay. Bioassay cells (10^4), washed to remove IL-3, were incubated with aliquots of conditioned medium from VEGF-D transfected COS cells, fraction #1 from the affinity column (void volume), or fraction #3 from the affinity column (containing VEGFDΔNΔC). All samples were tested at an initial concentration of 20% (i.e., ⅕) followed by doubling dilutions. Cells were allowed to incubate for 48 hours at 37° C. in a humidified atmosphere of 10% CO_2. Cell proliferation was quantitated by the addition of 1 μCi of ^3H-thymidine and counting the amount incorporated over a period of 4 hours.
The bioassay for the capacity of polypeptides to bind to VEGF receptor-2 is described in detail in Example 7. Aliquots of fractions eluted from the M2 affinity column, containing the VEGFDΔNΔC protein, were diluted in medium and tested in the VEGFR2 bioassay as previously described.

T1 sequence (P35918 other isoform, or with tags, fused parts or gaps mutant limits assumed): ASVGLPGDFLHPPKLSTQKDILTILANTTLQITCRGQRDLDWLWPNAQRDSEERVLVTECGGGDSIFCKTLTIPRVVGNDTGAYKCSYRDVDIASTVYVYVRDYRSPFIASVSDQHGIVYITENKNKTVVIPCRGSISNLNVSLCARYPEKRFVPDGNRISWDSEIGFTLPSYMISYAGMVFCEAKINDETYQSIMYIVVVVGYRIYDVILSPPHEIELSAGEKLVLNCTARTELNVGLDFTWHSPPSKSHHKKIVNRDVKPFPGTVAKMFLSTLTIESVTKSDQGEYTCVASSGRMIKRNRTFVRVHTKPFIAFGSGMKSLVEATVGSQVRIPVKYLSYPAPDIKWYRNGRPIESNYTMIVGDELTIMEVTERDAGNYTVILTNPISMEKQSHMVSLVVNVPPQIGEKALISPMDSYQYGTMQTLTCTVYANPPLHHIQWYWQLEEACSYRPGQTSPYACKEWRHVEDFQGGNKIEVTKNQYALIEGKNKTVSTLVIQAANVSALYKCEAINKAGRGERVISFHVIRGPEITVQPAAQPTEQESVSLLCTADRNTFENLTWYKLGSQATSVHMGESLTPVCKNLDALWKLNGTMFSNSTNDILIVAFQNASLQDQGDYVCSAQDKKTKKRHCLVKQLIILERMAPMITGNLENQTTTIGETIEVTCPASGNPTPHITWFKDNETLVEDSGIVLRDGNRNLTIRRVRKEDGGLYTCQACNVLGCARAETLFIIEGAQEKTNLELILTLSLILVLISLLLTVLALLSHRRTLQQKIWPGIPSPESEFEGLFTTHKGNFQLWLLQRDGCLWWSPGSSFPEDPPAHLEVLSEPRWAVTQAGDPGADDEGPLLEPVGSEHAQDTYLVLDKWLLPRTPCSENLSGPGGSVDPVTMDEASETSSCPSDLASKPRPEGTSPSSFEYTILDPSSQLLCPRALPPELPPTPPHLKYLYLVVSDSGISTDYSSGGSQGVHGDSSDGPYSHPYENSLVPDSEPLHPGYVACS

B1: VEGFDΔNΔC (ligand)
chain: FYDIETLKVIDEEWQRTQCSPRETCVEVASELGKSTNTFFKPPCVNVFRCGGCCNEESLICMNTSTSYISKQLFEISVPLTSVPELVPVKVANHTGCKCLPTAPRHPYS
notes: also called internal VEGF-D polypeptide; fraction #3; not shown: FLAG octapeptide at the N-terminus
With B1, the binding result was “binds”.
